Assay results reported in patent US20240026032A1 (Alexion, published 2024).

Assays:
[1] = molecular target: T1, Programmed Death 1 (PD-1) Fc chimera (R&D Systems, Catalog # 1086-PD-050) (human, UniProt Q15116 25-167); assay: BLI (Octet Red), TPP-985 loaded on anti-human IgG Fc tips, DLAT 10 µg/mL bound first, then PD-1 Fc
T1 construct: Bought reagent; not shown: Fc part of the bought chimera (captured by anti-human Fc tips)
Procedure: (§1) Antibodies and antibody fusions were diluted to 16 μg/mL in PBS and loaded onto anti-human IgG Fc tips (ForteBio, Catalog # 18-5064). Human DLAT recombinant protein (ProSpec, Catalog # ENZ-082) was diluted into PBS to 10 μg/mL. […] Finally, a dissociation step in PBS was performed to determine dissociation from the bound antibodies.

[2] = molecular target: T1, Programmed Death 1 (PD-1) Fc chimera …; assay: BLI (Octet Red), TPP-990 loaded on anti-human IgG Fc tips, DLAT 10 µg/mL bound first, then PD-1 Fc
Procedure: as §1

[3] = molecular target: T1, Programmed Death 1 (PD-1) Fc chimera …; assay: BLI (Octet), PD-1 Fc captured on anti-human Fc tips, TPP-993 in PBS as analyte
Procedure: Final dissociation in PBS was performed in the last step on the Bio-Layer Interferometry (BLI) data.

T1 sequence (Q15116 25-167, change not shown): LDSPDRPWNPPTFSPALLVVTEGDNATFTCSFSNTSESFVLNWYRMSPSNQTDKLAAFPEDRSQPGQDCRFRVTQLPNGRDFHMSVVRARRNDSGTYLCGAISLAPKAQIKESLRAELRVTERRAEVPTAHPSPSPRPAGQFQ

B1: TPP-985, human IgG2/4 PD5 antibody (antibody)
heavy: QLQLQESGPGLVKPSETLSLTCIVSGGSISRNSYYWGWIRQPPGKGLEWIGSIVYSGSTYHQPSLKSRVTIFLDTSKNQFFLKLTSVTAADTAVYYCARGTRATTWPPPIGYWGQGTLVTVSSASTKGPSVFPLAPCSRSTSESTAALGCLVKDYFPEPVTVSWNSGALTSGVHTFPAVLQSSGLYSLSSVVTVPSSNFGTQTYTCNVDHKPSNTKVDKTVERKCCVECPPCPAPPVAGPSVFLFPPKPKDTLMISRTPEVTCVVVDVSQEDPEVQFNWYVDGVEVHNAKTKPREEQFNSTYRVVSVLTVLHQDWLNGKEYKCKVSNKGLPSSIEKTISKAKGQPREPQVYTLPPSQEEMTKNQVSLTCLVKGFYPSDIAVEWESNGQPENNYKTTPPVLDSDGSFFLYSRLTVDKSRWQEGNVFSCSVMHEALHNHYTQKSLSLSLGK
light: QSVLTQPPSVSAAPGQKVTVSCFGSSSNIGNYFASWYQQLPGAAPRLLIYGNNERPSGIPDRFSGSKSGTSATLVITGLQTGDEAAYYCATWDSSLSAVVFGGGTKLTVLGQPKANPTVTLFPPSSEELQANKATLVCLISDFYPGAVTVAWKADGSPVKAGVETTKPSKQSNNKYAASSYLSLTPEQWKSHRSYSCQVTHEGSTVEKTVAPTECS
notes: also called PD5_IgG2-4; anti-DLAT IgG2-4 antibody with no PD-L1 variable-like domain
[1]
  binding result: no binding (tested: 12.5 µg/mL)

B2: TPP-990, human IgG2/4 PD5 antibody, C-terminus PD-L1 LC (antibody)
heavy: B1 heavy
light: QSVLTQPPSVSAAPGQKVTVSCFGSSSNIGNYFASWYQQLPGAAPRLLIYGNNERPSGIPDRFSGSKSGTSATLVITGLQTGDEAAYYCATWDSSLSAVVFGGGTKLTVLGQPKANPTVTLFPPSSEELQANKATLVCLISDFYPGAVTVAWKADGSPVKAGVETTKPSKQSNNKYAASSYLSLTPEQWKSHRSYSCQVTHEGSTVEKTVAPTECSGGSSRSSSSGGGGSGGGGFTVTVPKDLYVVEYGSNMTIECKFPVEKQLDLAALIVYWEMEDKNIIQFVHGEEDLKVQHSSYRQRARLLKDQLSLGNAALQITDVKLQDAGVYRCMISYGGADYKRITVKVNA
notes: Antibody fused with the human PD-L1 variable-like domain
[2]
  binding result: no binding (tested: 12.5 µg/mL)

B3: TPP-993 (PD2 Fab having no PD-L1 domain and no linker) (Fab)
heavy: EVQLVESGGGLVKPGGSLRLSCAASGFTFGSYSMTWVRQAPGKGLEWVSFISTVSTYIYYPDSVKGRFTISRDNAKNSLYLQMNSLRAEDTAVYYCARVSGRGSAARDGEKGTYYYYMDVWGKGTTVTVSSASTKGPSVFPLAPSSKSTSGGTAALGCLVKDYFPEPVTVSWNSGALTSGVHTFPAVLQSSGLYSLSSVVTVPSSSLGTQTYICNVNHKPSNTKVDKRVEPKSC
light: SSELTQDPAVSVALGQTVTITCQGDSLRSYYASWYQQKPGQAPVLVIFGKNNRPSGIPDRFSGSRSGNTASLTITGAQAEDEADYFCDSRDSSANHWVFGGGTKLTVLQPKAAPSVTLFPPSSEELQANKATLVCLISDFYPGAVTVAWKADSSPVKAGVETTTPSKQSNNKYAASSYLSLTPEQWKSHKSYSCQVTHEGSTVEKTVAPTECS
[3]
  binding result: no binding (tested: 10 µg/mL)
